The source of these data is PMC5420313.

The test has as its target GST-Dyn2(DQR)_(motor) (D1406A/Q1407A/R1410A mutant of GST-Dyn2_(motor)) (human) (UniProt Q8NCM8).

Take “GST-Dyn2(DQR)_(motor) (D1406A/Q1407A/R1410A mutant of GST-Dyn2_(motor)), Q8NCM8 1091-4307”: the maximum velocity of microtubule gliding by the unstacked GST-Dyn2(DQR) (motor) was found to be 562 nm/s.
